Patent publication EP1847600A1, “Specific protease for inactivation of human tumour necrosis factor-alpha” (Direvo Biotech AG, priority 2006, dated 2007)
Blank lines part the entries; values can stand above or below the molecule they belong to.

What was measured:
[1] = target: T1, transmembrane TNF-alpha (Homo sapiens, UniProt P01375, DEL77-88); test: Membrane-bound TNF-alpha assay: cell line expressing non-cleavable TNF plus reporter cells, apoptosis read-out; assay type: cell-based; settings: incubation at different concentrations for 4 h, then reporter cell line added
T1 construct: The transmembrane TNF induces apoptosis in these TNF-susceptible cells; expressed in transfected cells

[2] = target: hTNFα (Homo sapiens, UniProt P01375); test: TNF-alpha dependent cell-based caspase assay (Caspase-Glo 3/7) on WEHI 13VAR cells; set-up: species or system mouse; settings: 20 kDa PEG, protease 50 and 100 µg/ml, hTNFα 1 ng/ml, 4 h, 37 °C
Method: (§1) • Figure 1: Mass spectrometric verification of the proteolytic cleavage site of TNF-alpha. TNF-alpha was digested at a concentration of 1 mg/ml with protease variant E for 1 h at 37 °C in PBS buffer. The short fragment of the cleavage reaction was isolated on a C18-reversed phase HPLC-column and the collected fraction electrosprayed into the orifice of the ion-trap mass spectrometer. • Figure 2: Deconvoluted mass spectrometric analysis. The small cleavage product has been isolated and the determined mass represents the first 32 amino acids of SEQ ID NO: 11, confirming the targeted cleavage site. • Figure 3: Inactivation of recombinant human TNF-alpha activity by a panel of variants in a cell-based caspase assay. […] Detection of hTNFα-induced caspase activation was measured by a luminescence based read-out. […] (A) depicts maximal detected inactivation of hTNFα; (B) depicts dose dependency of the effects of the hTNFα specific protease. • Figure 4: Effect of pegylation on activity. […] The activity of the resulting pegylated protease was assessed against a recombinant hTNFα (A) or by a caspase assay that measures levels of remaining TNF-alpha activity following digestion of the cytokine by the protease (B). […] Cleavage is assessed by following the changes in the fluorescent signal. […] Efficacy was determined by using a standard clinical scoring system for ankle joint inflammation. […]

[3] = test system: synthetic peptide; test: Activity assay of pegylated versus non-pegylated protease against a synthetic peptide (Fig. 4A); assay type: biochemical; settings: 20 kDa PEG; synthetic peptide / recombinant hTNFα
Method: as §1

[4] = test system: human TNF-alpha transgenic mouse model of arthritis; test: Efficacy in human TNF-alpha transgenic mouse model of arthritis (Tg197); assay type: in vivo; settings: Tg197 mice, six weeks old, established disease; 50 mg/kg intraperitoneally three times per week for five weeks
Method: as §1

T1 sequence (P01375 with tags, fused parts or gaps DEL77-88): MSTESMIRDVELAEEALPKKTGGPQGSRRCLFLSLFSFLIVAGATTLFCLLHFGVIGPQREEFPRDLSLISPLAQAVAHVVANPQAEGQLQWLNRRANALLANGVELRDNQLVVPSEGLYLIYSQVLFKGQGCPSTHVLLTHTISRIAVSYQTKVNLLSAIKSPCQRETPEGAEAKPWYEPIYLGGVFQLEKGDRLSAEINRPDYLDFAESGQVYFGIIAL
Chain of hTNFα (P01375 77-233 limits assumed): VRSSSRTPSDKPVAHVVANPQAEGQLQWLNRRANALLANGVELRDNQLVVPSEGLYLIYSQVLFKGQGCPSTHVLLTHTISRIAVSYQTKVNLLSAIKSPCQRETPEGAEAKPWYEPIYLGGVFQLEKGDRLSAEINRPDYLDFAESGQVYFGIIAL

- inactivation of transmembrane TNF-alpha (inhibition of apoptosis of reporter cells) [1]: do not inhibit apoptosis
B1: pegylated variant G: variant G pegylated with 20 kD methoxy-poly(ethyleneglycol) derivative on lysine residues (conjugate)
chain: IVGGYDCEENSVPYHVSLNSDSNSTTICGGALINEQWVVTAGHCYSFLPLDKSRIQVRLGVHSTGALEGNEQIINAAKIIRHPQYDWKTLNNDIMLIKLSSPAVINAHVSTISLPTAPPATGTKCLISGWGNSKDPYKPSSGPSTADYPGEVQCLDAPVLSQTKCEASYPGKITSNMFCAGFLEGGKDSCQGDSGGPVVHNGQLQGVVSWGEGCAQKNKPGVYTNVYNYVEWIQDTIAANS

- remaining TNF-alpha activity after digestion, pegylated compared with non-pegylated variant (Fig. 4B) [2]: slight reduction in specific activity
B2: pegylated variant E: Variant E modified by chemical attachment of 20 kDa poly(ethyleneglycol) (conjugate)
chain: IVGGYDCEENSVPYHVSLNSGSNSTTICGGALINEQWVVTAGHCYAFFPADKSRIQVRLGVHSTGALEGNEQIINAAKIIRHPQYDWKTLNNDIMLIKLSSPAVINAHVSTISLPTAPPATGTKCLISGWGNSKDPYKPSSRADYPGEVQCLDAPVLSQTKCEASYPGKITSNMFCAGFLEGGKDSCQGDSGGPVVHNGQLQGVVSWGEGCAQKNKPGVYTNVYNYVEWIQDTIAANS
- activity of pegylated protease compared with non-pegylated variant (Fig. 4A) [3]: slight reduction in specific activity
- clinical score for ankle joint inflammation (arthritis score 0 to 3) [4]: Efficacy of pegylated TNF-alpha specific protease variant E is demonstrated
